Broadly, the stoichiometry N is a count of units in the complex or per binding partner.

The results in this text go back to PMC12022753, “Mechanism of Cas9 inhibition by AcrIIA11”.

Series [1] has as its target dSaCas9 (nuclease-dead SaCas9);AcrIIA11 D10A;N580A (Staphylococcus aureus;) (UniProt J7RUA5). In words: EMSA. Particulars: 100 mM KCl, 5 mM MgCl2, 1 mM DTT, 37 C, sgRNA EMSA: 20 mM Tris-HCl pH 8, 5% glycerol, 1 mM NaCl. (In general: In EMSA bound probe runs differently from free probe, usually more slowly.)
Series [2] has as its target SaCas9;AcrIIA11 (Staphylococcus aureus;) (UniProt J7RUA5). Put plainly: single-molecule DNA curtains. Particulars: 100 mM KCl, 5 mM MgCl2, 1 mM DTT, 37 C, sgRNA EMSA: 20 mM Tris-HCl pH 8, 5% glycerol, 1 mM NaCl.
Series [3] has as its target T1, SaCas9 (Staphylococcus aureus, UniProt J7RUA5 1-1053).
T1 sequence: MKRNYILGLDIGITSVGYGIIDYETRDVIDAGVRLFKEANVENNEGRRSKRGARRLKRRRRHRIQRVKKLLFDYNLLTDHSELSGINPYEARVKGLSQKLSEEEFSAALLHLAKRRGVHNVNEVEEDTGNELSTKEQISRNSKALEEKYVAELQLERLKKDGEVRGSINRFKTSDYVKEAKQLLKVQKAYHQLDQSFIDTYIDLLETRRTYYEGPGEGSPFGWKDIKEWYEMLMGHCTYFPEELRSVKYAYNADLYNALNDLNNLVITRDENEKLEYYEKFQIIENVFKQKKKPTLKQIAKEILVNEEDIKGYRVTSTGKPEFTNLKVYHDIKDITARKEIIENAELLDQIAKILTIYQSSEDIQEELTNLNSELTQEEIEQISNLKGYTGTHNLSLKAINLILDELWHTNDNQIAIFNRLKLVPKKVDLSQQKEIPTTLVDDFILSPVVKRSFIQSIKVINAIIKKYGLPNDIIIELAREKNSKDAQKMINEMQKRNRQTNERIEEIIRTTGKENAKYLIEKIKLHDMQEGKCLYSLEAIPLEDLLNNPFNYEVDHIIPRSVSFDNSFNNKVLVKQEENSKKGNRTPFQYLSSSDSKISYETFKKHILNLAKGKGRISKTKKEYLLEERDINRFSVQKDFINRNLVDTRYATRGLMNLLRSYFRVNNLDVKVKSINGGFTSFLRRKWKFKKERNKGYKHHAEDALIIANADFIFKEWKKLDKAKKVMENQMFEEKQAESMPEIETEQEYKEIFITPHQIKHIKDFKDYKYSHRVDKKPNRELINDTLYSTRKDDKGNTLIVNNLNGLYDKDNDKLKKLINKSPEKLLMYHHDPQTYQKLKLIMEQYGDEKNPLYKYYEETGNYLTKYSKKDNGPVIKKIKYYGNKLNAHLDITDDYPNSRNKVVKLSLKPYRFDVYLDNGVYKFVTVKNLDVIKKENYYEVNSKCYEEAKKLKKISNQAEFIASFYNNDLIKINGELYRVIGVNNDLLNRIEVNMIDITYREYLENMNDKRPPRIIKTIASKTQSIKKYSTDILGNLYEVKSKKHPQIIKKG
In words: single-molecule DNA curtains. Particulars: EMSA: 20 mM Tris-HCl pH 8, 5% glycerol, 100 mM KCl, 5 mM MgCl2, 1 mM DTT, 37 C, 1 mM NaCl.

Series [4] addresses T1, SaCas9. In words: EMSA; RNP preformed with 490 nM SaCas9; EMSA: 20 mM Tris-HCl pH 8, 5% glycerol, 100 mM KCl, 5 mM MgCl2, 1 mM DTT, 37 C; sgRNA EMSA: 20 mM Tris-HCl pH 8, 5% glycerol, 1 mM NaCl, 1 mM DTT, 37 C; curtains (dSaCas9): 40 mM Tris-HCl pH 8, 2 mM MgCl2, 100 mM NaCl, 1 mM DTT, 0.2 mg/ml BSA. Particulars: protein: recombinant, tags: N-terminal 3xFLAG, 6xHis-TwinStrep-SUMO removed, label: 5'-32P.

A further series has as its target AcrIIA11-6xHis. In words: negative-stain electron microscopy; SaCas9 RNP mixed with ~2-fold excess of AcrIIA11-6xHis, passed over Superose 6 (peak eluted at a higher molecular weight than SaCas9 RNP); 200 mM NaCl, 25 mM HEPES pH 7.5, 5% glycerol, 2 mM DTT; low-resolution 3D reconstruction from 16 761 particles with the SaCas9 RNP crystal structure docked.

Regarding “TTTGGGTATTGGGTATTGGGTTTTGGGTTTGGGTTATTTT (double strand) [5x strong PAM DNA (KD201/KD202), nontarget]”, the binding signal in series [1] (25 nM dSaCas9 and sgRNA, 5 uM AcrIIA11, EMSA: 20 mM Tris-HCl pH 8, 5% glycerol) is 90 % DNA bound.

Regarding “48.5 kb DNA (lambda) with 29.4 kb-target sgRNA”, the binding signal (% of molecules at target within 90 s) in series [2] (EMSA: 20 mM Tris-HCl pH 8, 5% glycerol) is 12; with SaCas9 [3] (sgRNA EMSA: 20 mM Tris-HCl pH 8, 5% glycerol), 43.

In the case of “lambda DNA with scrambled sgRNA (no target)”, the binding signal in series [2] (scrambled sgRNA, AcrIIA11, EMSA: 20 mM Tris-HCl pH 8, 5% glycerol) is 98 s (lifetime). This molecule came in with a binding signal (s (half-dissociation lifetime)) in the series with SaCas9 [3] (scrambled sgRNA) of 61. Turning to “AAGAACGCCTCGCACACTCTTTTGACTTGATCGGCACGTAAGAGGTTCCAACTTTCACCATAATGAAATAAGATCACTACTTGGGTTATTTTTTGAGTTATCGAGATTTTCAGACTCTGTTATTCGGCGGTT (double strand) [SMART PCR DNA with noncomplementary sgRNA]”, the binding signal in series [1] (2 uM AcrIIA11, noncomplementary, EMSA: 20 mM Tris-HCl pH 8, 5% glycerol) came out at 32 % DNA bound.

B1: SaCas9 SMART target sgRNA (structured_RNA)
RNA: UAAUGAAAUAAGAUCACUACGUUUUAGUACUCUGGAAACAGAAUCUACUAAAACAAGGCAAAAUGCCGUGUUUAUCUCGUCAACUUGUUGGCGAGAU
Regarding B1, the binding result with SaCas9 [4] was “binds”.

B2: SaCas9 RNP from TS-SUMO-SaCas9-sgRNA (enzyme)
chain: T1 sequence
Molecule B2 had a stoichiometry N with AcrIIA11-6xHis of 1.
